We go through 2 molecules from patent US20170145092A1 (CHINA SYNTHETIC RUBBER, published 2017).

The assay addresses T1, recombinant PLVAP51-442 protein (human, UniProt Q9BX97 51-442).
T1 construct: also called recombinant PLVAP protein; recombinant human PLVAP protein
T1 sequence: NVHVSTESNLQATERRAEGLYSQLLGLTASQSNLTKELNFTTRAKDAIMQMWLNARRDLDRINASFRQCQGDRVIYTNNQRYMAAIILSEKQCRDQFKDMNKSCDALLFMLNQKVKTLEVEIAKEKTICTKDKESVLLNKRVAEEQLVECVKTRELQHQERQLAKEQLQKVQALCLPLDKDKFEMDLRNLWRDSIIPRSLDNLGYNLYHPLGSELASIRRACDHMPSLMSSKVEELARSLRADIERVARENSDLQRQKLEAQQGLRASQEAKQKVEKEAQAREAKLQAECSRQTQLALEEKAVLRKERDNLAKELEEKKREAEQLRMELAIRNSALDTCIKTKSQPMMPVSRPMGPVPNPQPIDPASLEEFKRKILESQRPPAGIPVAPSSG
Kind of assay: ANTQ300 quartz crystal microbalance. The method, then:
Binding affinities of KFCC-GY4 and KFCC-GY5 anti-PLVAP monoclonal antibodies were measured at the ANT Technology Co., Ltd. (Taipei, Taiwan) using ANTQ300 quartz crystal microbalance technology (Lin S., et al. J Immunol Methods 239:121-124 (2000)).

B1: KFCC-GY4 monoclonal antibody (antibody, V domains shown)
VH: EVQLQQSGAEFVRSGASVKLSCTASGFNIKDYYIHWVKQRPEQGLEWIGWIDPENGDIEYAPKFQGKATMTADTSSNTAYLQFSSLTSEDTAVYYCLYQEGSWGQGTTLTVSS
VL: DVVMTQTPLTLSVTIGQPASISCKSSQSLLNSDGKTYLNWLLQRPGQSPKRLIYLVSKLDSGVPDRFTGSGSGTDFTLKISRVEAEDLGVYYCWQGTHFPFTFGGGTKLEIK
notes: Mouse monoclonal antibody from a hybridoma, purified by Protein G; also called KFCC-GY4 mAb; KFCC-GY4 monoclonal anti-PLVAP antibody
Turning to B1, the Kd (usually the constant that tells how readily two partners part at equilibrium) stood at 60 nM.

B2: KFCC-GY5 monoclonal antibody (antibody, V domains shown)
VH: QVQLQQPGAELVRPGASVKLSCKASGYTFTSNYINWVKQRPGQGLEWIGNIYPSDGFTNYNQKFKDRATLTVDKSSSTAYMQLSSPTSEDSAVYYCTRNFDVWGAGTTVTVSS
VL: DVVMTQTPLSLPVSLGDQASISCRSSQSLVHSNGNTYLQWYLQKPGQSPKLLIYTVSNRFSGVPDRFSGSGSGPDFTLKISRVEAEDLGVYFCSQSTHVPFTFGSGTKLEIK
notes: Mouse monoclonal antibody from a hybridoma, purified by Protein G; also called KFCC-GY5 mAb; KFCC-GY5 monoclonal anti-PLVAP antibody
For the molecule B2, the equilibrium dissociation constant (Kd) was 41 nM.
